Measured values: patent US20090149339A1 (published 2009)
Ends that are not written are not given here. * marks the point of attachment. Biotin = O=C1N[C@H]2[C@H](CS[C@H]2CCCCC(=O)*)N1

Tests used:
[1] = molecular target: T1, GST-TAX2 PDZ domain fusion protein (human tax interaction protein 2 AA54-140; PDZ domain 1 of 1) (human, UniProt P08515 1-218 = GST); experiment: A/G assays
T1 construct: also called TX 2

[2] = molecular target: GST-NOS1 PDZ domain fusion protein (human neuronal nitric oxide synthase; PDZ domain 1 of 1) (human, UniProt P08515 1-218 = GST); experiment: A/G assays
[3] = molecular target: T2, GST-TAX43 PDZ domain fusion protein (human tax interaction protein 43 AA15-85; PDZ domain 1 of 1) (human, UniProt P08515 1-218 = GST); experiment: A/G assays
T2 construct: also called TX 43

[4] = molecular target: T3, GST-KIAA0559 PDZ domain fusion protein (KIAA0559 AA766-870; PDZ1 of 1) (UniProt P08515 1-218 = GST); experiment: A/G assays
T3 construct: also called K559

[5] = molecular target: GST-PTN-4 PDZ domain fusion protein (protein-tyrosine phosphatase meg1 AA774-862; PDZ domain 1 of 1) (UniProt P08515 1-218 = GST); experiment: A/G assays
[6] = molecular target: T4, GST-MPP2 PDZ domain fusion protein (maguk p55 subfamily member 2 (DLG2) AA185-273; PDZ domain 1 of 1) (UniProt P08515 1-218 = GST); experiment: A/G assays
T4 construct: also called MMP2

[7] = molecular target: GST-prIL16 PDZ domain fusion protein (putative interleukin 16 precursor AA170-383; PDZ domains 1-2 of 2) (UniProt P08515 1-218 = GST); experiment: A/G assays
[8] = molecular target: T5, GST-41.8 kD PDZ domain fusion protein (hypothetical 41.8 kD protein AA4-85; PDZ domain 1 of 1) (UniProt P08515 1-218 = GST); experiment: A/G assays
T5 construct: also called hypoth

[9] = molecular target: GST-LIMK2 PDZ domain fusion protein (human LIM domain kinase 2 AA185-275; PDZ domain 1 of 1) (human, UniProt P08515 1-218 = GST); experiment: A/G assays
[10] = molecular target: T6, GST-SYN1a PDZ domain fusion protein (alpha1-syntrophin AA96-189; PDZ domain 1 of 1) (UniProt P08515 1-218 = GST); experiment: A/G assays
T6 construct: also called SYN 1 alpha; SYNTR 1 alpha

[11] = molecular target: GST-DVL1 PDZ domain fusion protein (human dishevelled segment polarity protein homolog AA248-340); PDZ domain … (human, UniProt P08515 1-218 = GST); experiment: A/G assays
[12] = molecular target: GST-LIM PDZ domain fusion protein (Human LIM protein AA29-112; PDZ domain 1 of 1) (human, UniProt P08515 1-218 = GST); experiment: A/G assays
[13] = molecular target: GST-MPP1 PDZ domain fusion protein (55 Kd erythrocyte membrane protein AA101-186; PDZ domain 1 of 1) (UniProt P08515 1-218 = GST); experiment: A/G assays
[14] = molecular target: GST-AF6 PDZ domain fusion protein (af-6 protein AA985-1077; PDZ domain 1 of 1) (UniProt P08515 1-218 = GST); experiment: A/G assays
[15] = molecular target: GST-MINT3 PDZ domain fusion protein (human MINT3 AA11-52; PDZ domain 1 of 1) (human, UniProt P08515 1-218 = GST); experiment: A/G assays
[16] = molecular target: GST-TIAM1 PDZ domain fusion protein (T-lymphoma invasion and metastasis inducing protein 1 AA1001-1088); PDZ 1 … (UniProt P08515 1-218 = GST); experiment: A/G assays
[17] = molecular target: T7, GST-TAX40 PDZ domain fusion protein (human tax interaction protein 40 AA35-137; PDZ domain 1 of 1) (human, UniProt P08515 1-218 = GST); experiment: A/G assays
T7 construct: also called TX 40

[18] = molecular target: T8, GST-CBP PDZ domain fusion protein (Cytohesin binding protein HE AA85-175; PDZ domain 1 of 1) (UniProt P08515 1-218 = GST); experiment: A/G assays
T8 construct: also called Prot

[19] = molecular target: T9, GST-TAX33 PDZ domain fusion protein (tax interaction protein 33 AA73-162; PDZ domain 1 of 1) (UniProt P08515 1-218 = GST); experiment: A/G assays
T9 construct: also called TX33

[20] = molecular target: T10, GST-KIAA0316 PDZ domain fusion protein (KIAA0316 AA197-284; PDZ domain 1 of 1) (UniProt P08515 1-218 = GST); experiment: A/G assays
T10 construct: also called K316

[21] = molecular target: T11, GST-KIAA0303 PDZ domain fusion protein (KIAA0303 AA652-742; PDZ domain 1 of 1) (UniProt P08515 1-218 = GST); experiment: A/G assays
T11 construct: also called K303

[22] = molecular target: T12, GST-CASK PDZ domain fusion protein (CASK AA495-584; PDZ domain 1 of 1) (mouse, UniProt P08515 1-218 = GST); experiment: A/G assays
T12 construct: also called mCASK

[23] = molecular target: T13, GST-RGS12 PDZ domain fusion protein (human regulator of G-protein signalling 12 AA35-103; PDZ domain 1 of 1) (human, UniProt P08515 1-218 = GST); experiment: A/G assays
T13 construct: also called RSG12

[24] = molecular target: GST-PSD95 PDZ domain fusion protein (human post-synaptic density protein 95 AA387-724; PDZ domains 1-3 of 3) (human, UniProt P08515 1-218 = GST); experiment: A assay
[25] = molecular target: T14, GST-NeDLG PDZ domain fusion protein (presynaptic protein sao102, neuroendocrine-dlg; PDZ domains 1-2 of 3) (UniProt P08515 1-218 = GST); experiment: G assay
T14 construct: also called NeDLG1

[26] = molecular target: T14, GST-NeDLG PDZ domain fusion protein …; experiment: A/G assays
[27] = molecular target: T5, GST-41.8 kD PDZ domain fusion protein …; experiment: A and G assays

Chain of GST-MPP1 PDZ domain fusion protein (55 Kd erythrocyte membrane protein AA101-186; PDZ domain 1 of 1) (P08515 1-218, tags or fused parts left off): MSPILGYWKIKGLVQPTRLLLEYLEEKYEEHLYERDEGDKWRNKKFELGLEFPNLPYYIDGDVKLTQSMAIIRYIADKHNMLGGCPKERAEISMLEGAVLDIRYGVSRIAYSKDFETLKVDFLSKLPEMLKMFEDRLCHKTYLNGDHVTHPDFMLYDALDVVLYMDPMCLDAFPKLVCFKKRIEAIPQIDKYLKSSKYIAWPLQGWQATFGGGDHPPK
Chain of GST-LIMK2 PDZ domain fusion protein (human LIM domain kinase 2 AA185-275; PDZ domain 1 of 1) (P08515 1-218, tags or fused parts left off): as above
Chain of GST-TIAM1 PDZ domain fusion protein (T-lymphoma invasion and metastasis inducing protein 1 AA1001-1088); PDZ 1 … (P08515 1-218, tags or fused parts left off): as above
Chain of GST-PSD95 PDZ domain fusion protein (human post-synaptic density protein 95 AA387-724; PDZ domains 1-3 of 3) (P08515 1-218, tags or fused parts left off): as above
Chain of GST-PTN-4 PDZ domain fusion protein (protein-tyrosine phosphatase meg1 AA774-862; PDZ domain 1 of 1) (P08515 1-218, tags or fused parts left off): as above
T9 sequence (P08515 1-218, tags or fused parts left off): as above
T12 sequence (P08515 1-218, tags or fused parts left off): as above
T3 sequence (P08515 1-218, tags or fused parts left off): as above
Chain of GST-AF6 PDZ domain fusion protein (af-6 protein AA985-1077; PDZ domain 1 of 1) (P08515 1-218, tags or fused parts left off): as above
T11 sequence (P08515 1-218, tags or fused parts left off): as above
T5 sequence (P08515 1-218, tags or fused parts left off): as above
T2 sequence (P08515 1-218, tags or fused parts left off): as above
T7 sequence (P08515 1-218, tags or fused parts left off): as above
T1 sequence (P08515 1-218, tags or fused parts left off): as above
Chain of GST-LIM PDZ domain fusion protein (Human LIM protein AA29-112; PDZ domain 1 of 1) (P08515 1-218, tags or fused parts left off): as above
T10 sequence (P08515 1-218, tags or fused parts left off): as above
T6 sequence (P08515 1-218, tags or fused parts left off): as above
T14 sequence (P08515 1-218, tags or fused parts left off): as above
T8 sequence (P08515 1-218, tags or fused parts left off): as above
Chain of GST-DVL1 PDZ domain fusion protein (human dishevelled segment polarity protein homolog AA248-340); PDZ domain … (P08515 1-218, tags or fused parts left off): as above
Chain of GST-MINT3 PDZ domain fusion protein (human MINT3 AA11-52; PDZ domain 1 of 1) (P08515 1-218, tags or fused parts left off): as above

| Binder | binding result [1] | binding result [2] | binding result [3] | binding result [4] | binding result [5] | binding result [6] | binding result [7] | binding result [9] | binding result [10] | binding result [11] | binding result [12] | binding result [13] | binding result [14] | binding result [15] | binding result [16] | binding result [17] | binding result [18] | binding result [19] | binding result [20] | binding result [21] | other results |
| --- | --- | --- | --- | --- | --- | --- | --- | --- | --- | --- | --- | --- | --- | --- | --- | --- | --- | --- | --- | --- | --- |
| Biotin-ISKATPALPTVSISSSAEV (also called AA1L-R) [CLASP-1 C-terminal PL peptide AA1L, biotinylated] | no binding | no binding | no binding | no binding | no binding | no binding | no binding | no binding | no binding | no binding | no binding | no binding | no binding | no binding | no binding | no binding | no binding | no binding | no binding | no binding | binding result [8]: no binding; binding result [22]: no binding; binding result [23]: no binding; binding result [24]: binds; binding result [25]: binds |
| Biotin-QATSRNGHSARQHVVADTEL [CD34 C-terminal PL peptide AA7L, biotinylated] | no binding | no binding | no binding | no binding | no binding | no binding | no binding | no binding | no binding | no binding | no binding | no binding | no binding | no binding | no binding | no binding | no binding | no binding | no binding | no binding | binding result [8]: no binding; binding result [22]: no binding; binding result [23]: no binding; binding result [24]: binds; binding result [25]: binds |
| Biotin-SVFSIPTLWSPWPPSSSSQL (also called CD3-eta) [CD3n C-terminal PL peptide AA4L, biotinylated] | no binding | no binding | no binding | no binding | no binding | no binding | no binding | no binding | no binding | no binding | no binding | no binding | no binding | no binding | no binding | no binding | no binding | no binding | no binding | no binding | binding result [26]: no binding; binding result [22]: no binding; binding result [23]: no binding; binding result [27]: binds; binding result [24]: binds |
